Measured values published in patent publication US6291235.

Tests used:
[1] = biological target: A33 antigen on the surface of human colon cancer cells (human); assay: rosetting assay on SK-CO-19 cells
[2] = biological target: A33 antigen on the surface of human colon cancer cells (human); assay: rosetting assay on LS 180 cells
[3] = biological target: A33 antigen on the surface of human colon cancer cells (human); assay: rosetting assay on NCI-H508 cells
[4] = biological target: A33 antigen on the surface of human colon cancer cells (human); assay: rosetting assay on LOVO cells
[5] = biological target: A33 antigen on the surface of human colon cancer cells (human); assay: rosetting assay on ASPC-1 (pancreatic) cells
[6] = biological target: A33 antigen on the surface of human colon cancer cells (human); assay: rosetting assay on SW403 cells
[7] = biological target: A33 antigen on the surface of human colon cancer cells (human); assay: rosetting assay on LS 174T cells
[8] = biological target: A33 antigen on the surface of human colon cancer cells (human); assay: rosetting assay on SW1222 cells
[9] = biological target: A33 antigen on the surface of human colon cancer cells (human); assay: rosetting assay on SNC-2B cells
[10] = biological target: A33 antigen on the surface of human colon cancer cells (human); assay: rosetting assay on LIM 1215 cells
[11] = biological target: A33 antigen on the surface of human colon cancer cells (human); assay: rosetting assay on SK-CO-17 cells
[12] = biological target: rabbit muscle actin (rabbit) (UniProt P68135); assay: surface plasmon resonance (BIAcore), F(ab)'2 immobilised, 0.3 µg rabbit muscle actin injected
[13] = biological target: rabbit muscle actin (rabbit) (UniProt P68135); assay: surface plasmon resonance (BIAcore), whole A33 immobilised, 0.3 µg rabbit muscle actin injected

monoclonal antibody A33 (mAb A33), murine immunoglobulin, isotype IgG2a, secreted by hybridoma ATCC No. HB 8779
Rosetting A. Titer [1]: 8192 | Rosetting A. Titer [2]: 2048 | Rosetting A. Titer [3]: 4096 | Rosetting A. Titer [4]: 4096 | Rosetting A. Titer [5]: 8192 | Rosetting A. Titer [6]: 8192 | Rosetting A. Titer [7]: 4096 | Rosetting A. Titer [8]: 4096 | Rosetting A. Titer [9]: 4096 | Rosetting A. Titer [10]: 8192 | Rosetting A. Titer [11]: 512

F(ab)'2 fragment of A33 humanized monoclonal antibody
signal at the end of the injection pulse (RU) [12]: 4 RU

whole A33 (A33 IgG) immobilised on the biosensor surface (antibody)
signal at the end of the injection pulse (RU) [13]: 247 RU
